Key:
Assay type in all cases: biochemical
[1] = Substrate specificity assay of purified luciferase, ZS26/F-CTZ luminescence ratio; conditions: for ZS26 luminescence intensity to F-CTZ luminescence intensity: purified prokaryotically expressed luciferase 1 μg/ml, substrates 100 μM, microplate reader
Description: (§1) Protein concentration was accurately determined using the BCA quantification kit (Thermo Scientific™ Pierce™ BCA Protein Assay Kit), and luciferase was diluted to 1 μg/ml with diluent (50 mM Tris-HCl pH 8.0, 100 mM NaCl, 0.1% (v/v) Tween-20) and 10 μL was added to black 96-well plates, which was then added with 90 μL of the respective substrates, coelenterazine (purchased from Baiaolaibo), fluorinated coelenterazine, and coelenterazine derivatives ZS2 and ZS26 that were diluted to 100 μM with the same solution, and the luminescence intensity was read from the luminescence module with a microplate reader. The substrate specificity of the mutants was compared with the activity ratio of ZS2/F-CTZ and ZS26/F-CTZ. Table 10 below lists results of the mutation sites and substrate specificity of ZS26/F-CTZ and ZS2/F-CTZ of the dominant mutant of Pleuromamma xiphia luciferase.
(§2) pEE12.4 Pxluc WT and mutant pEE12.4 Pxluc P26-95, as well as the coupled products SA-Pxluc WT and SA-Pxluc P26-95 were subjected to the activity assay according to the method described in Example 5.

[2] = Substrate specificity assay of purified luciferase, ZS2/F-CTZ luminescence ratio; conditions: for ZS2 luminescence intensity to F-CTZ luminescence intensity: purified prokaryotically expressed luciferase 1 μg/ml, substrates 100 μM, microplate reader
Description: as §1, §2

[3] = Protein activity assay for Pleuromamma xiphia luciferase expressed in prokaryotic cells; conditions: protein expressed in OrigamiB (DE3) or BL21 (DE3), Gluc as control, FIG. 6
Description: The concentration of protein was accurately determined using a BCA quantification kit (Thermo Scientific™ Pierce™ BCA Protein Assay Kit), and the above purified luciferase was diluted with diluent (50 mM Tris-HCl pH 8.0, 100 mM NaCl, 0.1% (v/v) Tween-20). The protein expressed by the pET28a-Pxluc WT plasmid was diluted to 12 μg/ml, and the proteins expressed by the pCold WT Pxluc plasmid and pCold WT-NS Pxluc plasmid were diluted to […]. 10 μL of each protein was added to a black 96-well plate, which was then added with 90 µL of the respective substrates, coelenterazine (purchased from Baiaolaibo), fluorinated coelenterazine, and coelenterazine derivatives ZS2, ZS26 (the structural formula of each compound is shown in FIG. 5) that were diluted to 100 µM with the same solution, and the luminescence intensity was read from the luminescence module with a microplate reader. Gluc expressed in OrigamiB (DE3) competent cells was known to have good luminescence activity, and thus it was used as a control group. […] Therefore, the luminescence activity of Pleuromamma xiphia luciferase without a signal peptide to coelenterazine is similar to that of Gluc to coelenterazine. […] Subsequent experiments were performed with Pleuromamma xiphia luciferase without a signal peptide.

[4] = Activity assay of Pxluc expressed in eukaryotic cells; conditions: expressed in eukaryotic cells (Expi-CHO); FIG. 12
Description: as §1, §2

Molecule	ZS26 luminescence intensity to F-CTZ luminescence intensity [1]	substrate specificity for ZS26/F-CTZ ([1]; text summary of Table 10, FIG. 7)	ZS2 luminescence intensity to F-CTZ luminescence intensity [2]	substrate specificity for ZS2/F-CTZ ([2]; text summary of Table 10, FIG. 8)	luminescence value / luminescence activity to coelenterazine ([3]; listed as Pleuromamma xiphia luciferase without a signal peptide)	luminescence value / luminescence activity to coelenterazine ([3]; listed as pCold WT NS Pxluc)	activity of catalyzing the substrates ZS2, ZS26 [4]
pCold WT-NS Pxluc: wild type Pleuromamma xiphia luciferase without a signal peptide, SEQ ID NO: 4, prokaryotic expression (protein, WT-NS Pxluc) QPTENKQESHIVDSDLDGDRGRKLPGKKLPIEVLKIMEANARRAGCTRGCLICLSKIKCTAKMKRYIPGRCHTYEGDKSIGQGGIGGPIVDIPEIIGFKNMEPMDQFIAQVDLCADCTTGCLKGLANVRCNDLLKKWLPDRCAGFADKIQNEVDSIKGMAGDR	1.77	about 1.77 fold	3.56	about 3.56 fold	higher activity	highest luminescence value	
P25-1: Pxluc mutant without signal peptide, G98L, Q99R (SEQ ID NO: 2 numbering) (protein, signal peptide removed; (WT Pxluc)) MYIKVWFGLACLSLVLAQPTENKQESHIVDSDLDGDRGRKLPGKKLPIEVLKIMEANARRAGCTRGCLICLSKIKCTAKMKRYIPGRCHTYEGDKSILRGGIGGPIVDIPEIIGFKNMEPMDQFIAQVDLCADCTTGCLKGLANVRCNDLLKKWLPDRCAGFADKIQNEVDSIKGMAGDR	23.647		21.808				
Pxluc WT: wild-type luciferase for eukaryotic expression, with signal peptide, 6×His tag and Avitag (SEQ ID NO: 28) (protein, misc_feature 1..585 pEE12.4) MYIKVWFGLACLSLVLAHHHHHHGSQPTENKQESHIVDSDLDGDRGRKLPGKKLPIEVLKIMEANARRAGCTRGCLICLSKIKCTAKMKRYIPGRCHTYEGDKSIGQGGIGGPIVDIPEIIGFKNMEPMDQFIAQVDLCADCTTGCLKGLANVRCNDLLKKWLPDRCAGFADKIQNEVDSIKGMAGDRGSGLNDI							had the activity of catalyzing the substrates
